US20230279141A1 (MINERVA BIOTECHNOLOGIES, published 2023)
No end group written: not given here.

T1: recombinant human NME7-AB (human, UniProt Q9Y5B8 92-376)
T1 construct: Monomer with A and B domains; also called NME-AB
T1 sequence: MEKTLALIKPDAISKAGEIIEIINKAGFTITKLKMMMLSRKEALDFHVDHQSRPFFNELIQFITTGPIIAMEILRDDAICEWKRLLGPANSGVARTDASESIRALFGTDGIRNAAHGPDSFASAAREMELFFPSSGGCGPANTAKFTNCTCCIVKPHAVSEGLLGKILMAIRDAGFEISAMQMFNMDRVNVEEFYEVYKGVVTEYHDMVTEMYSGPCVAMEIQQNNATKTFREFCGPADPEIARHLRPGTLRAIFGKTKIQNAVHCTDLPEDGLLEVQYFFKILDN


Experiments:
[1] = target: T1, recombinant human NME7-AB; test: sandwich ELISA, PSMGFR-Cys-BSA on the plate, second tagged PSMGFR in solution (FIG. 1)
Method: The PSMGFR peptide bearing a C-terminal Cysteine (PSMGFR-Cys) was covalently coupled to BSA using Imject Maleimide activated BSA kit (Thermo Fisher). PSMGFR-Cys coupled BSA was diluted to 10 ug/mL in 0.1M carbonate/bicarbonate buffer pH 9.6 and 50 uL was added to each well of a 96 well plate. After overnight incubation at 4° C., the plate was washed twice with PBS-T and a 3% BSA solution was added to block remaining binding site on the well. After 1 h at RT the plate was washed twice with PBS-T and NME7, diluted in PBS-T+1% BSA, was added at different concentrations. After 1 h at RT the plate was washed 3× with PBS-T and anti-NM23-H7 (B-9, Santa Cruz Biotechnology), diluted in PBS-T+1% BSA, was added at 1/500 dilution. […] After 1 h at RT the plate was washed 3× with PBS-T and binding of NME7 was measured at 415 nm using ABTS solution (Pierce). […]
After 1 h at RT the plate was washed 3× with PBS-T and His-Tagged PSMGFR peptide (PSMGFR-His) or biotinylated PSMGFR peptide (PSMGFR-biotin), diluted in PBS-T+1% BSA, was added at different concentration. […] After 1 h at RT the plate was washed 3× with PBS-T and binding of PSMGFR peptide to NME7 already bound to another PSMGFR peptide (which could not signal by anti-His antibody or by streptavidin) coupled BSA was measured at 415 nm using a ABTS solution (Pierce).

[2] = target: T1, recombinant human NME7-AB; test: ELISA, plate coated with recombinant NME7-AB (FIG. 24)

binding result [1]	binding result [2]	Binder
binds	–	GTINVHDVETQFNQYKTEAASRYNLTISDVSVSDVPFPFSAQSGA (also: also used with C-terminal Cys coupled to BSA, or His-tagged or biotinylated, also called MUC1* peptide; FLR) [PSMGFR peptide (MUC1* extra cellular domain peptide)]
–	binds	anti-NME7AB monoclonal antibody 5F3A5D4 (antibody, V domains shown, Mouse monoclonal) VH: VQLQQSGPDLVKPGTSVKISCKTSGNTFTEYTMHWVKQSHGKSLEWIGGFNPNNGVTNYNQKFKGKATLTVDKSSSTAYMELRSLTSEDSAVYYCARRYYHSTYVFYFDSWGQGTTLTVSS VL: DIQMTQTTSSLSASLGDRVTISCSASQGISNYLNWFQQKPDGTIKLLIYYTSSLHSGVPSRFSGSGSGTDYSLTISNVEPEDIATYYCQQYSKLPYTFGGGTKLEIKR
–	binds	anti-NME7AB monoclonal antibody 8F9A5A1 (antibody, V domains shown, Mouse monoclonal) VH: IQLVQSGPELKKPGETVKISCKASGYTFTNYGMNWVKQAPGKGLKWMGWINTYTGEPTYVDDFKGRFAFSLETSATTAYLQINNLKNEDTSTYFCARLRGIRPGPLAYWGQGTLVTVSA VL: EILLTQSPAIIAASPGEKVTITCSASSSVSYMNWYQQKPGSSPKIWIYGISNLASGVPARFSGSGSGTSFSFTINSMEAEDVATYYCQQRSSYPPTFGGGTKLEIKR
